Among the data in PMC3436766, “Distinct and Contrasting Transcription Initiation Patterns at Mycobacterium tuberculosis Promoters” are Ka and Kd values, retold here.

Data set [1] concerns the target T1, RNA polymerase holoenzyme with sigma A (RNAP-σA) (Mycobacterium smegmatis SM07, UniProt A0QSL8;P60281;A0QS66;A0QWT1;A0QW02 1-350;1-1169;1-1317;1-107;1-466). Kind of data set: EMSA; closed complex (KB), on ice 20 min. Particulars: protein: native; chain copies: 2;1;1;1;1; label: 5'-32P on one strand; blunt. A general note: In EMSA bound probe runs differently from free probe, usually more slowly.

In data set [2] the target is T1, RNA polymerase holoenzyme with sigma A …. Kind of data set: EMSA. Particulars: protein: native; chain copies: 2;1;1;1;1; label: 5'-32P on one strand; blunt.

B1: PgyrB1 (dsDNA)
DNA 1: GGTAAAAACGAGGCCGAGCACTCGGCCCTGGCGCCCGATCACGGTACAGTGGTGTGCGACCCCCTGCGGCGACTC
DNA 2: GAGTCGCCGCAGGGGGTCGCACACCACTGTACCGTGATCGGGCGCCAGGGCCGAGTGCTCGGCCTCGTTTTTACC
As for B1, the Ka in data set [1] is 2.1 ± 0.03 10^7 M^-1. Also, the Kd in data set [2] is 68 ± 12.2 x 10^7 M (as printed; exponent implausible, probably nM).
